Source: patent US20180086849A1 (Hoffmann-La Roche, published 2018)

How the values were obtained:
[1] = biological target: T1, human CEA (Carcinoembryonic antigen) on cells (human, UniProt P06731 35-685); test: cell-based or functional assay
T1 sequence (looked up): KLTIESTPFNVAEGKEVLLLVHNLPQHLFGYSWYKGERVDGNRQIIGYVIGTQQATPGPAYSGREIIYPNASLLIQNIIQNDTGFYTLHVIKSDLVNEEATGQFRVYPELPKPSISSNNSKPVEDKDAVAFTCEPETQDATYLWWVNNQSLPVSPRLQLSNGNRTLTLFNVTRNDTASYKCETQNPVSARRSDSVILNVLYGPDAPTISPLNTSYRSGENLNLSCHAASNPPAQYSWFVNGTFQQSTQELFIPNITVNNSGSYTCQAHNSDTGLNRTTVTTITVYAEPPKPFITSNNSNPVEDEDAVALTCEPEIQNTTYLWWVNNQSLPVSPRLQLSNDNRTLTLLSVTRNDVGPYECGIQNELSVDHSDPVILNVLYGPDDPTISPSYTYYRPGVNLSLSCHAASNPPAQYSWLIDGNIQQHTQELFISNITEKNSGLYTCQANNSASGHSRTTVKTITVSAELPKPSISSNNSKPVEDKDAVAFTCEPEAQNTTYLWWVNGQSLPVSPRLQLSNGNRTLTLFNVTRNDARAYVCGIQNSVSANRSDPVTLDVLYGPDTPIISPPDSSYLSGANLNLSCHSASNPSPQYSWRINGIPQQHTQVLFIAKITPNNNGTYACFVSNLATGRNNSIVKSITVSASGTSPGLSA

[2] = biological target: T2, Human EGFR (immobilized on CM5 chip) (human, UniProt P00533 25-645, limits assumed); test: SPR (Biacore T100): construct captured at 200 nM on immobilised human EGFR, then CD3 fusion at 2000 nM
T2 construct: also called tumor antigen

[3] = biological target: human MCSP (Melanoma-associated Chondroitin Sulfate Proteoglycan) on cells (human, UniProt Q6UVK1 30-2322); test: cell-based or functional assay
human MCSP (Melanoma-associated Chondroitin Sulfate Proteoglycan) on cells, sequence (Q6UVK1 30-2322): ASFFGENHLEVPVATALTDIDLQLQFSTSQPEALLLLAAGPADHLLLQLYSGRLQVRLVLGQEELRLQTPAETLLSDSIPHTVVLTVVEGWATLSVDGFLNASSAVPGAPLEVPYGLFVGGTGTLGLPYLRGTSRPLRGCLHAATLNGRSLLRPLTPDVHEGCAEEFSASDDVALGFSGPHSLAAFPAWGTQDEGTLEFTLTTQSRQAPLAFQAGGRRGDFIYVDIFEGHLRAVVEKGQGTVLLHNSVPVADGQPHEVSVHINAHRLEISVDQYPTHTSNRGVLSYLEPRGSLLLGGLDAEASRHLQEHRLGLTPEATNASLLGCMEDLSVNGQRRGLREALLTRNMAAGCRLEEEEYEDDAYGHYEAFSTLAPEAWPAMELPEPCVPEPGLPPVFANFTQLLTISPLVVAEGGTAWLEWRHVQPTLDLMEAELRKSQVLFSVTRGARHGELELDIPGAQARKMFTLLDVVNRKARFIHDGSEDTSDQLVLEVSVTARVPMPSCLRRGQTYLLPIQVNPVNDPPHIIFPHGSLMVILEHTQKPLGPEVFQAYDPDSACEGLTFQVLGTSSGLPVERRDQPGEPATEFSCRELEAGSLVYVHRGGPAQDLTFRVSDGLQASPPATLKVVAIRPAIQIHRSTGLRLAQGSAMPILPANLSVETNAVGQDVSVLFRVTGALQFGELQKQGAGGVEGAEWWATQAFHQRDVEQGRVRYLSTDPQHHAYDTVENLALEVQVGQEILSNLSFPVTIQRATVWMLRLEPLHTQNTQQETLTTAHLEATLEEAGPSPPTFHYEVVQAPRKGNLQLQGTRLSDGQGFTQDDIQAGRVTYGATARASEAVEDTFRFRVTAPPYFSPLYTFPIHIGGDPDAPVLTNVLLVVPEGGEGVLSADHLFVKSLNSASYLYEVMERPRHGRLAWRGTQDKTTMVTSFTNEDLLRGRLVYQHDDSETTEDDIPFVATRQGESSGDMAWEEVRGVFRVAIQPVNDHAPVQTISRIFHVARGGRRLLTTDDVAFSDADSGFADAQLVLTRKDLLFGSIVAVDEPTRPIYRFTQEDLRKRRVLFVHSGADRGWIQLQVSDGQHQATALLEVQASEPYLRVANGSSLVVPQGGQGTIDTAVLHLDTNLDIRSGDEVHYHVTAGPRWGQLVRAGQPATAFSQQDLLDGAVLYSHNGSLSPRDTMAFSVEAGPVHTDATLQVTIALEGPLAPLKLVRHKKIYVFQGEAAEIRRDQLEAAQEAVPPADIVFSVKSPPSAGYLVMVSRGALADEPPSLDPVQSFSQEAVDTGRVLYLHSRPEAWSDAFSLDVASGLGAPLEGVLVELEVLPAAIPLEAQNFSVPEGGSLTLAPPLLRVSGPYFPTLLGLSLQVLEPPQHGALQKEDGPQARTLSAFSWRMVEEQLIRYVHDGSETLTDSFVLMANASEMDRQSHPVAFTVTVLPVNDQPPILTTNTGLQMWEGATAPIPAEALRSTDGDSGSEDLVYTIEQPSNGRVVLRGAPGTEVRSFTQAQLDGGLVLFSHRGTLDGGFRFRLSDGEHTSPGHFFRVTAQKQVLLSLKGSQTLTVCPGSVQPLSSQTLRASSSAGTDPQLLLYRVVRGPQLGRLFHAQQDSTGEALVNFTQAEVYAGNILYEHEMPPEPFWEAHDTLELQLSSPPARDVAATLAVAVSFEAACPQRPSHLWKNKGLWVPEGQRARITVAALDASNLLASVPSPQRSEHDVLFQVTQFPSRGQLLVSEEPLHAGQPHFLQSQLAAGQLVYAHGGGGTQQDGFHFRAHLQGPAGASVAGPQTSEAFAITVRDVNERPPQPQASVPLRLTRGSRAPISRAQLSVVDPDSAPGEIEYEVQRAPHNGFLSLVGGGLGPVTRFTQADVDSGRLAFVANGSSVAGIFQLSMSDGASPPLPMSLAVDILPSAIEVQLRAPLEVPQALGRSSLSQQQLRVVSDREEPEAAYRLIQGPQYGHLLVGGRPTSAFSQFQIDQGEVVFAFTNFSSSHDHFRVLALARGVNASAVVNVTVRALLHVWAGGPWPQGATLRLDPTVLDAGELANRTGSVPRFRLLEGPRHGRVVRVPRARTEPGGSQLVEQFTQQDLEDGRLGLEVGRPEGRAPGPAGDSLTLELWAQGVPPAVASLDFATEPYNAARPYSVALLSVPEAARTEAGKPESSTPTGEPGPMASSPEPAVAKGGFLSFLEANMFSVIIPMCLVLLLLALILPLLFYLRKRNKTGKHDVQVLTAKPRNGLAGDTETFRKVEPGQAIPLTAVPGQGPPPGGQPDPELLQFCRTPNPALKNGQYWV

Her2 on KPL-4 cells = Her2 on KPL-4 cells (human (human cell line KPL-4), UniProt P04626 23-1255); test: cell-based or functional assay

B1: 2+1 IgG Crossfab, inverted; VL/VH exchange (CH1A1A/V9), anti-CEA/anti-huCD3 (bispecific antibody)
chain 1: EVQLVESGGGLVQPGGSLRLSCAASGYSFTGYTMNWVRQAPGKGLEWVALINPYKGVSTYNQKFKDRFTISVDKSKNTAYLQMNSLRAEDTAVYYCARSGYYGDSDWYFDVWGQGTLVTVSSASVAAPSVFIFPPSDEQLKSGTASVVCLLNNFYPREAKVQWKVDNALQSGNSQESVTEQDSKDSTYSLSSTLTLSKADYEKHKVYACEVTHQGLSSPVTKSFNRGEC
chain 2: not shown
chain 3: QVQLVQSGAEVKKPGASVKVSCKASGYTFTEFGMNWVRQAPGQGLEWMGWINTKTGEATYVEEFKGRVTFTTDTSTSTAYMELRSLRSDDTAVYYCARWDFAYYVEAMDYWGQGTTVTVSSASTKGPSVFPLAPSSKSTSGGTAALGCLVKDYFPEPVTVSWNSGALTSGVHTFPAVLQSSGLYSLSSVVTVPSSSLGTQTYICNVNHKPSNTKVDKKVEPKSCDKTHTCPPCPAPEAAGGPSVFLFPPKPKDTLMISRTPEVTCVVVDVSHEDPEVKFNWYVDGVEVHNAKTKPREEQYNSTYRVVSVLTVLHQDWLNGKEYKCKVSNKALGAPIEKTISKAKGQPREPQVCTLPPSRDELTKNQVSLSCAVKGFYPSDIAVEWESNGQPENNYKTTPPVLDSDGSFFLVSKLTVDKSRWQQGNVFSCSVMHEALHNHYTQKSLSLSPGK
chain 4: DIQMTQSPSSLSASVGDRVTITCKASAAVGTYVAWYQQKPGKAPKLLIYSASYRKRGVPSRFSGSGSGTDFTLTISSLQPEDFATYYCHQYYTYPLFTFGQGTKLEIKRTVAAPSVFIFPPSDEQLKSGTASVVCLLNNFYPREAKVQWKVDNALQSGNSQESVTEQDSKDSTYSLSSTLTLSKADYEKHKVYACEVTHQGLSSPVTKSFNRGEC
EC50 of T cell-mediated killing (LDH release) of LS-174T cells, human PBMCs, 28 h [1]: 955 pM
EC50 of T cell-mediated killing (LDH release) of MKN-45 cells, human PBMCs, 28 h [1]: 243 pM

B2: 1+1 IgG-Crossfab light chain fusion (CH1A1A/V9), anti-CEA/anti-huCD3 (bispecific antibody)
chain 1: DIQMTQSPSSLSASVGDRVTITCRASQDIRNYLNWYQQKPGKAPKLLIYYTSRLESGVPSRFSGSGSGTDYTLTISSLQPEDFATYYCQQGNTLPWTFGQGTKVEIKSSASTKGPSVFPLAPSSKSTSGGTAALGCLVKDYFPEPVTVSWNSGALTSGVHTFPAVLQSSGLYSLSSVVTVPSSSLGTQTYICNVNHKPSNTKVDKKVEPKSC
chain 2: DIQMTQSPSSLSASVGDRVTITCKASAAVGTYVAWYQQKPGKAPKLLIYSASYRKRGVPSRFSGSGSGTDFTLTISSLQPEDFATYYCHQYYTYPLFTFGQGTKLEIKRTVAAPSVFIFPPSDEQLKSGTASVVCLLNNFYPREAKVQWKVDNALQSGNSQESVTEQDSKDSTYSLSSTLTLSKADYEKHKVYACEVTHQGLSSPVTKSFNRGECGGGGSGGGGSGGGGSGGGGSEVQLVESGGGLVQPGGSLRLSCAASGYSFTGYTMNWVRQAPGKGLEWVALINPYKGVSTYNQKFKDRFTISVDKSKNTAYLQMNSLRAEDTAVYYCARSGYYGDSDWYFDVWGQGTLVTVSSASVAAPSVFIFPPSDEQLKSGTASVVCLLNNFYPREAKVQWKVDNALQSGNSQESVTEQDSKDSTYSLSSTLTLSKADYEKHKVYACEVTHQGLSSPVTKSFNRGEC
chain 3: not shown
chain 4: DKTHTCPPCPAPEAAGGPSVFLFPPKPKDTLMISRTPEVTCVVVDVSHEDPEVKFNWYVDGVEVHNAKTKPREEQYNSTYRVVSVLTVLHQDWLNGKEYKCKVSNKALGAPIEKTISKAKGQPREPQVCTLPPSRDELTKNQVSLSCAVKGFYPSDIAVEWESNGQPENNYKTTPPVLDSDGSFFLVSKLTVDKSRWQQGNVFSCSVMHEALHNHYTQKSLSLSPGK
EC50 of T cell-mediated killing (LDH release) of LS-174T cells, human PBMCs, 28 h [1]: 1560 pM
EC50 of T cell-mediated killing (LDH release) of MC38-huCEA cells, human PBMCs, 24 h [1]: ~3.2 nM
EC50 of T cell-mediated killing (LDH release) of MKN-45 cells, human PBMCs, 28 h [1]: 213 pM

B3: 1+1 IgG scFab (anti-EGFR/anti-huCD3) (bispecific antibody)
chain 1: DIQMTQSPSSLSASVGDRVTITCRASQGINNYLNWYQQKPGKAPKRLIYNTNNLQTGVPSRFSGSGSGTEFTLTISSLQPEDFATYYCLQHNSFPTFGQGTKLEIKRTVAAPSVFIFPPSDEQLKSGTASVVCLLNNFYPREAKVQWKVDNALQSGNSQESVTEQDSKDSTYSLSSTLTLSKADYEKHKVYACEVTHQGLSSPVTKSFNRGEC
chain 2: not shown
chain 3: DKTHTCPPCPAPEAAGGPSVFLFPPKPKDTLMISRTPEVTCVVVDVSHEDPEVKFNWYVDGVEVHNAKTKPREEQYNSTYRVVSVLTVLHQDWLNGKEYKCKVSNKALGAPIEKTISKAKGQPREPQVCTLPPSRDELTKNQVSLSCAVKGFYPSDIAVEWESNGQPENNYKTTPPVLDSDGSFFLVSKLTVDKSRWQQGNVFSCSVMHEALHNHYTQKSLSLSPGK
binding result [2]: binds

B4: 1+1 IgG scFab, one armed inverted (anti-EGFR/anti-huCD3) (bispecific antibody)
chain 1: not shown
chain 2: not shown
chain 3: EVQLVESGGGLVQPGGSLRLSCAASGYSFTGYTMNWVRQAPGKGLEWVALINPYKGVSTYNQKFKDRFTISVDKSKNTAYLQMNSLRAEDTAVYYCARSGYYGDSDWYFDVWGQGTLVTVSSASTKGPSVFPLAPSSKSTSGGTAALGCLVKDYFPEPVTVSWNSGALTSGVHTFPAVLQSSGLYSLSSVVTVPSSSLGTQTYICNVNHKPSNTKVDKKVEPKSCDKTHTCPPCPAPEAAGGPSVFLFPPKPKDTLMISRTPEVTCVVVDVSHEDPEVKFNWYVDGVEVHNAKTKPREEQYNSTYRVVSVLTVLHQDWLNGKEYKCKVSNKALGAPIEKTISKAKGQPREPQVCTLPPSRDELTKNQVSLSCAVKGFYPSDIAVEWESNGQPENNYKTTPPVLDSDGSFFLVSKLTVDKSRWQQGNVFSCSVMHEALHNHYTQKSLSLSPGK
binding result [2]: binds

B5: 2+1 IgG scFab, P329G LALA (anti-EGFR/anti-huCD3) (bispecific antibody)
chain 1: QVQLVQSGAEVKKPGSSVKVSCKASGFTFTDYKIHWVRQAPGQGLEWMGYFNPNSGYSTYAQKFQGRVTITADKSTSTAYMELSSLRSEDTAVYYCARLSPGGYYVMDAWGQGTTVTVSSASTKGPSVFPLAPSSKSTSGGTAALGCLVKDYFPEPVTVSWNSGALTSGVHTFPAVLQSSGLYSLSSVVTVPSSSLGTQTYICNVNHKPSNTKVDKKVEPKSCDKTHTCPPCPAPEAAGGPSVFLFPPKPKDTLMISRTPEVTCVVVDVSHEDPEVKFNWYVDGVEVHNAKTKPREEQYNSTYRVVSVLTVLHQDWLNGKEYKCKVSNKALGAPIEKTISKAKGQPREPQVCTLPPSRDELTKNQVSLSCAVKGFYPSDIAVEWESNGQPENNYKTTPPVLDSDGSFFLVSKLTVDKSRWQQGNVFSCSVMHEALHNHYTQKSLSLSPGK
chain 2: DIQMTQSPSSLSASVGDRVTITCRASQGINNYLNWYQQKPGKAPKRLIYNTNNLQTGVPSRFSGSGSGTEFTLTISSLQPEDFATYYCLQHNSFPTFGQGTKLEIKRTVAAPSVFIFPPSDEQLKSGTASVVCLLNNFYPREAKVQWKVDNALQSGNSQESVTEQDSKDSTYSLSSTLTLSKADYEKHKVYACEVTHQGLSSPVTKSFNRGEC
chain 3: not shown
notes: also called 2+1 IgG scFab (EGFR)
binding result [2]: binds

B6: 1+1 IgG scFab, one armed (anti-EGFR/anti-huCD3) (bispecific antibody)
chain 1: not shown
chain 2: QVQLVQSGAEVKKPGSSVKVSCKASGFTFTDYKIHWVRQAPGQGLEWMGYFNPNSGYSTYAQKFQGRVTITADKSTSTAYMELSSLRSEDTAVYYCARLSPGGYYVMDAWGQGTTVTVSSASTKGPSVFPLAPSSKSTSGGTAALGCLVKDYFPEPVTVSWNSGALTSGVHTFPAVLQSSGLYSLSSVVTVPSSSLGTQTYICNVNHKPSNTKVDKKVEPKSCDKTHTCPPCPAPEAAGGPSVFLFPPKPKDTLMISRTPEVTCVVVDVSHEDPEVKFNWYVDGVEVHNAKTKPREEQYNSTYRVVSVLTVLHQDWLNGKEYKCKVSNKALGAPIEKTISKAKGQPREPQVCTLPPSRDELTKNQVSLSCAVKGFYPSDIAVEWESNGQPENNYKTTPPVLDSDGSFFLVSKLTVDKSRWQQGNVFSCSVMHEALHNHYTQKSLSLSPGK
chain 3: DIQMTQSPSSLSASVGDRVTITCRASQGINNYLNWYQQKPGKAPKRLIYNTNNLQTGVPSRFSGSGSGTEFTLTISSLQPEDFATYYCLQHNSFPTFGQGTKLEIKRTVAAPSVFIFPPSDEQLKSGTASVVCLLNNFYPREAKVQWKVDNALQSGNSQESVTEQDSKDSTYSLSSTLTLSKADYEKHKVYACEVTHQGLSSPVTKSFNRGEC
binding result [2]: binds

B7: aVH TCB (Crossfab fragment with a CD3 binding moiety and two aVH moieties binding MCSP, P329G LALA) (bispecific antibody)
light: SASYRKR
heavy 1: HQYYTYPLFT
heavy 2: QAVVTQEPSLTVSPGGTVTLTCGSSTGAVTTSNYANWVQEKPGQAFRGLIGGTNKRAPGTPARFSGSLLGGKAALTLSGAQPEDEAEYYCALWYSNLWVFGGGTKLTVLSSASTKGPSVFPLAPSSKSTSGGTAALGCLVKDYFPEPVTVSWNSGALTSGVHTFPAVLQSSGLYSLSSVVTVPSSSLGTQTYICNVNHKPSNTKVDKKVEPKSC
EC50 [pM] 24 h of T-cell mediated killing of MV-3 cells [3]: 9120 pM
EC50 [pM] 48 h of T-cell mediated killing of MV-3 cells [3]: 8970 pM

B8: Darpin TCB (Crossfab fragment with a CD3 binding moiety and two Darpin moieties binding HER2, P329G LALA) (bispecific antibody)
light: EVQLVESGGGLVQPGGSLRLSCAASGFNIKDTYIGWVRRAPGKGTELVARIYPTNGYTRYADSVKGRFTISADTSKNTAYLQMNSLRAEDTAVYYCARTSWGGWLSGDYWGQGTLVTVSSDKTHTCPPCPAPEAAGGPSVFLFPPKPKDTLMISRTPEVTCVVVDVSHEDPEVKFNWYVDGVEVHNAKTKPREEQYNSTYRVVSVLTVLHQDWLNGKEYKCKVSNKALGAPIEKTISKAKGQPREPQVCTLPPSRDELTKNQVSLSCAVKGFYPSDIAVEWESNGQPENNYKTTPPVLDSDGSFFLVSKLTVDKSRWQQGNVFSCSVMHEALHNHYTQKSLSLSPGK
heavy 1: not shown
heavy 2: QAVVTQEPSLTVSPGGTVTLTCGSSTGAVTTSNYANWVQEKPGQAFRGLIGGTNKRAPGTPARFSGSLLGGKAALTLSGAQPEDEAEYYCALWYSNLWVFGGGTKLTVLSSASTKGPSVFPLAPSSKSTSGGTAALGCLVKDYFPEPVTVSWNSGALTSGVHTFPAVLQSSGLYSLSSVVTVPSSSLGTQTYICNVNHKPSNTKVDKKVEPKSC
EC50 [pM] 24 h of T-cell mediated killing of KPL-4 cells (Her2 on KPL-4 cells): 376 pM
EC50 [pM] 48 h of T-cell mediated killing of KPL-4 cells (Her2 on KPL-4 cells): 235 pM
